According to US20130089875A1:

Assays:
[1] = target: PEGylated insulin-like-growth-factor I (human) (UniProt P05019); assay: sandwich ELISA: PEG-IGF-I at 0.25 ng/ml captured by biotinylated anti-PEG antibody on Streptavidin plate; dig-IGFBP-4 at 100 ng/ml; anti-digoxygenin-HRP/ABTS
[2] = target: PEGylated insulin-like-growth-factor I (human) (UniProt P05019); assay: sandwich ELISA: PEG-IGF-I at 1.00 ng/ml captured by biotinylated anti-PEG antibody on Streptavidin plate; dig-IGFBP-4 at 100 ng/ml; anti-digoxygenin-HRP/ABTS
[3] = target: PEGylated insulin-like-growth-factor I (human) (UniProt P05019); assay: sandwich ELISA: PEG-IGF-I at 0.50 ng/ml captured by biotinylated anti-PEG antibody on Streptavidin plate; dig-IGFBP-4 at 100 ng/ml; anti-digoxygenin-HRP/ABTS
[4] = target: PEGylated insulin-like-growth-factor I (human) (UniProt P05019); assay: sandwich ELISA: PEG-IGF-I at 0.13 ng/ml captured by biotinylated anti-PEG antibody on Streptavidin plate; dig-IGFBP-4 at 100 ng/ml; anti-digoxygenin-HRP/ABTS
[5] = target: PEGylated insulin-like-growth-factor I (human) (UniProt P05019); assay: sandwich ELISA: PEG-IGF-I at 0.06 ng/ml captured by biotinylated anti-PEG antibody on Streptavidin plate; dig-IGFBP-4 at 100 ng/ml; anti-digoxygenin-HRP/ABTS; mean of three
[6] = target: PEGylated insulin-like-growth-factor I (human) (UniProt P05019); assay: sandwich ELISA: PEG-IGF-I at 0.06 ng/ml captured by biotinylated anti-PEG antibody on Streptavidin plate; dig-IGFBP-4 at 100 ng/ml; anti-digoxygenin-HRP/ABTS
[7] = target: PEGylated insulin-like-growth-factor I (human) (UniProt P05019); assay: sandwich ELISA: PEG-IGF-I at 0.03 ng/ml captured by biotinylated anti-PEG antibody on Streptavidin plate; dig-IGFBP-4 at 100 ng/ml; anti-digoxygenin-HRP/ABTS
[8] = target: PEGylated insulin-like-growth-factor I (human) (UniProt P05019); assay: sandwich ELISA: PEG-IGF-I at 2.00 ng/ml captured by biotinylated anti-PEG antibody on Streptavidin plate; dig-IGFBP-4 at 100 ng/ml; anti-digoxygenin-HRP/ABTS
[9] = target: PEGylated insulin-like-growth-factor I (human) (UniProt P05019); assay: sandwich ELISA: PEG-IGF-I at 0.03 ng/ml captured by biotinylated anti-PEG antibody on Streptavidin plate; dig-IGFBP-4 at 100 ng/ml; anti-digoxygenin-HRP/ABTS; mean of three
[10] = target: PEGylated insulin-like-growth-factor I (human) (UniProt P05019); assay: sandwich ELISA: PEG-IGF-I at 0.25 ng/ml captured by biotinylated anti-PEG antibody on Streptavidin plate; dig-IGFBP-4 at 100 ng/ml; anti-digoxygenin-HRP/ABTS; mean of three
[11] = target: PEGylated insulin-like-growth-factor I (human) (UniProt P05019); assay: sandwich ELISA: PEG-IGF-I at 2.00 ng/ml captured by biotinylated anti-PEG antibody on Streptavidin plate; dig-IGFBP-4 at 100 ng/ml; anti-digoxygenin-HRP/ABTS; mean of three
[12] = target: PEGylated insulin-like-growth-factor I (human) (UniProt P05019); assay: sandwich ELISA: PEG-IGF-I at 1.00 ng/ml captured by biotinylated anti-PEG antibody on Streptavidin plate; dig-IGFBP-4 at 100 ng/ml; anti-digoxygenin-HRP/ABTS; mean of three
[13] = target: PEGylated insulin-like-growth-factor I (human) (UniProt P05019); assay: sandwich ELISA: PEG-IGF-I at 0.50 ng/ml captured by biotinylated anti-PEG antibody on Streptavidin plate; dig-IGFBP-4 at 100 ng/ml; anti-digoxygenin-HRP/ABTS; mean of three
[14] = target: PEGylated insulin-like-growth-factor I (human) (UniProt P05019); assay: sandwich ELISA: PEG-IGF-I at 0.13 ng/ml captured by biotinylated anti-PEG antibody on Streptavidin plate; dig-IGFBP-4 at 100 ng/ml; anti-digoxygenin-HRP/ABTS; mean of three

B1: digoxygenylated insulin-like-growth-factor-binding-protein-4 (protein)
chain: DEAIHCPPCSEEKLARCRPPVGCEELVREPGCGCCATCALGLGMPCGVYTPRCGSGLRCYPPRGVEKPLHTLMHGQGVCMELAEIEAIQESLQPSDKDEGDHPNNSFSPCSAHDRRCLQKHFAKIRDRSTSGGKMKVNGAPREDARPVPQGSCQSELHRALERLAASQSRTHEDLYIIPIPNCDRNGNFHPKQCHPALDGQRGKCWCVDRKTGVKLPGGLEPKGELDCHQLADSFRE
modifications: digoxigenin coupled through digoxigenin 3-O-methylcarbonyl-epsilon-aminocaproic acid-N-hydroxysuccinimide ester (amine-reactive), molar ratio 1:5; positions not given
OD (absorption signal), Sample No. 1 [1]: 0.757 OD
OD (absorption signal), Sample No. 2 [1]: 0.734 OD
OD (absorption signal), Sample No. 3 [1]: 0.766 OD
OD (absorption signal), Sample No. 1 [2]: 1.66 OD
OD (absorption signal), Sample No. 2 [2]: 1.66 OD
OD (absorption signal), Sample No. 3 [2]: 1.73 OD
OD (absorption signal), Sample No. 1 [3]: 1.21 OD
OD (absorption signal), Sample No. 2 [3]: 1.25 OD
OD (absorption signal), Sample No. 3 [3]: 1.22 OD
OD (absorption signal), Sample No. 1 [4]: 0.439 OD
OD (absorption signal), Sample No. 2 [4]: 0.428 OD
OD (absorption signal), Sample No. 3 [4]: 0.436 OD
OD (absorption signal), mean [5]: 0.248 OD
OD (absorption signal), Sample No. 1 [6]: 0.25 OD
OD (absorption signal), Sample No. 2 [6]: 0.252 OD
OD (absorption signal), Sample No. 3 [6]: 0.243 OD
OD (absorption signal), Sample No. 1 [7]: 0.141 OD
OD (absorption signal), Sample No. 2 [7]: 0.159 OD
OD (absorption signal), Sample No. 3 [7]: 0.149 OD
OD (absorption signal), Sample No. 1 [8]: 2.04 OD
OD (absorption signal), Sample No. 2 [8]: 2.06 OD
OD (absorption signal), Sample No. 3 [8]: 2 OD
OD (absorption signal), mean [9]: 0.15 OD
OD (absorption signal), mean [10]: 0.752 OD
OD (absorption signal), mean [11]: 2.03 OD
OD (absorption signal), mean [12]: 1.69 OD
OD (absorption signal), mean [13]: 1.23 OD
OD (absorption signal), mean [14]: 0.434 OD
